Data: article PMC2386288, “Kinetics and Ligand-Binding Preferences of Mycobacterium tuberculosis Thymidylate Synthases, ThyA and ThyX” (PLoS ONE, 2008)
Like-named read-outs stand apart in the source and are kept apart here.

Legend:
ThyX = target: T1, ThyX (Mycobacterium tuberculosis, UniProt P9WG57); test: biochemical
T1 construct: C-terminal His-Tag

ThyA = target: T2, ThyA (Mycobacterium tuberculosis, UniProt P9WFR9); test: biochemical
T2 construct: N-terminal His-Tag

[1] = test system: Nc1nc2c(c(=O)[nH]1)N1CN(c3ccc(C(=O)N[C@@H](CCC(=O)O)C(=O)O)cc3)CC1CN2; test: purified protein
[2] = test system: O=c1ccn([C@H]2C[C@H](O)[C@@H](COP(=O)(O)O)O2)c(=O)[nH]1; test: purified protein
[3] = test system: NC(=O)C1=CN([C@@H]2O[C@H](COP(=O)(O)OP(=O)(O)OC[C@H]3O[C@@H](n4cnc5c(N)ncnc54)[C@H](OP(=O)(O)O)[C@@H]3O)[C@@H](O)[C@H]2O)C=CC1; test: purified protein; conditions: FAD
SEC = target: the molecule itself; test: SEC

T2 sequence (P9WFR9 2-266): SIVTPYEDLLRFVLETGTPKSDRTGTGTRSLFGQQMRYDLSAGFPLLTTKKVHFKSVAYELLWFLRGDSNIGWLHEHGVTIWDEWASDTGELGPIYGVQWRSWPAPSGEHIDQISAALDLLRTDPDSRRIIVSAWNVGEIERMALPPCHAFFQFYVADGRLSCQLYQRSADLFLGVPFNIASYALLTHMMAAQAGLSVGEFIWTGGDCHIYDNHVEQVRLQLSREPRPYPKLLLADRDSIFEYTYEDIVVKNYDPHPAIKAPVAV

Molecule: O=c1[nH]c(=O)n([C@H]2C[C@H](O)[C@@H](COP(=O)(O)O)O2)cc1F [FdUMP, 5-Fluoro-2′-deoxyuridine 5′-monophosphate]
- Ki (ThyX): 100 ± 10 nM
- Ki (ThyA): 2 ± 0.2 nM

Molecule: ThyA (Mycobacterium tuberculosis H37Rv)
- Km [1]: 70 ± 30 µM
- Km ([2]; mTHF): 4 ± 0.7 µM

Molecule: ThyX (Mycobacterium tuberculosis H37Rv)
- Km [3]: 47 ± 10 µM
- Km ([1]; FAD): 4.0 ± 1 µM
- Km ([2]; FAD): 3 ± 0.7 µM

B1: Histidine-tagged M. tuberculosis ThyX (flavin-dependent thymidylate synthase) (enzyme)
chain: MAETAPLRVQLIAKTDFLAPPDVPWTTDADGGPALVEFAGRACYQSWSKPNPKTATNAGYLRHIIDVGHFSVLEHASVSFYITGISRSCTHELIRHRHFSYSQLSQRYVPEKDSRVVVPPGMEDDADLRHILTEAADAARATYSELLAKLEAKFADQPNAILRRKQARQAARAVLPNATETRIVVTGNYRAWRHFIAMRASEHADVEIRRLAIECLRQLAAVAPAVFADFEVTTLADGTEVATSPLATEA
notes: also called FDTS
- stoichiometry N (SEC): 4
